Source: the supplement of paper PMC7125110
± gives the standard error. For part of these data: Fewer inactive variants are shown than the library holds.

B1: glmS ribozyme (parent)
chain: AUAAAAGCGCCAGAACUACAGAAAUGUAGUUGACGAGGAGGAGGUUUAUCGAAUUUUCGGCGGAUGCCUCCAAA

What was measured:
Conditions in all cases: with glucosamine-6-phosphate
glucosamine-6-phosphate [1] = variants of: B1; test: kcat; higher = faster cleavage; RNA array
In short: (§1)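 Barcoded ribozyme variants on sequenced MiSeq chips were transcribed in situ by E. coli RNA polymerase and followed at 37 °C through a hybridised Cy3 probe. Glucosamine-6-phosphate at 40 μM to 10 mM in HEPES/KCl/Mg(OAc)2 buffer was flowed in, and tiles were imaged over ~14 h. Signals were normalised to baseline and to non-cleaving reference variants, and per-tile medians were fit to one- or two-exponential decays to give kobs. Weighted Michaelis–Menten fits across concentrations gave kcat and KM.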

glucosamine-6-phosphate [2] = variants of: B1; test: KM; higher = weaker cofactor use; RNA array
In short: as §1

glucosamine-6-phosphate [3] = variants of: B1; test: self-cleavage kobs at 160 uM GlcN6P; higher = faster cleavage; RNA array
In short: as §1

glucosamine-6-phosphate [4] = variants of: B1; test: self-cleavage kobs at 2500 uM GlcN6P; higher = faster cleavage; RNA array
In short: as §1

glucosamine-6-phosphate [5] = variants of: B1; test: self-cleavage kobs at 10000 uM GlcN6P; higher = faster cleavage; RNA array
In short: as §1

glucosamine-6-phosphate [6] = variants of: B1; test: self-cleavage kobs at 640 uM GlcN6P; higher = faster cleavage; RNA array
In short: as §1

glucosamine-6-phosphate [7] = variants of: B1; test: self-cleavage kobs at 40 uM GlcN6P; higher = faster cleavage; RNA array
In short: as §1

Row | Variant | kcat (glucosamine-6-phosphate [1]) [s⁻¹] | KM (glucosamine-6-phosphate [2]) [µM] | self-cleavage kobs at 160 uM GlcN6P (glucosamine-6-phosphate [3]) [s⁻¹] | self-cleavage kobs at 2500 uM GlcN6P (glucosamine-6-phosphate [4]) [s⁻¹] | self-cleavage kobs at 10000 uM GlcN6P (glucosamine-6-phosphate [5]) [s⁻¹] | self-cleavage kobs at 640 uM GlcN6P (glucosamine-6-phosphate [6]) [s⁻¹] | self-cleavage kobs at 40 uM GlcN6P (glucosamine-6-phosphate [7]) [s⁻¹]
1 | A52C U57G | 9.64e-05 ± 1.4e-05 | 2300 ± 960 | < 1e-05 | 5.77e-05 ± 1.5e-05 | 7.59e-05 ± 1.6e-05 | – | –
2 | U49G C50U A64U C67G C70A | 3.56e-05 ± 1.6e-05 | – | – | – | – | 4.15e-05 ± 2e-05 | –
3 | C50U U57C G63A | 2.57e-05 ± 3.6e-06 | – | – | – | – | – | –
4 | A53U U69A | 0.000102 ± 1.2e-05 | – | 5.84e-05 ± 1.7e-05 | 0.000103 ± 1.7e-05 | 9.48e-05 ± 1.3e-05 | 0.000146 ± 3.1e-05 | 4.28e-05 ± 1.3e-05
5 | G51A C71U | < 1e-05 | – | – | – | – | – | < 1e-05
6 | G51A C71G | 2.05e-05 ± 3.5e-06 | – | – | – | – | – | –
7 | C50A U55A | 1.62e-05 ± 1.3e-06 | 3470 ± 790 | – | – | – | – | –
8 | G51A C70G | 3.48e-05 ± 7.3e-06 | – | – | – | – | – | –
9 | G51A C70A | 2.99e-05 ± 7.1e-06 | – | – | 3.24e-05 ± 1.5e-05 | – | – | –
10 | A52U G66A | 0.000745 ± 0.00034 | – | – | 5.37e-05 ± 1.4e-05 | 0.000185 ± 2.9e-05 | – | –
11 | A52U G66U | 4.61e-05 ± 3.4e-06 | – | – | 3.74e-05 ± 1.8e-05 | 4.26e-05 ± 1.2e-05 | – | < 1e-05
12 | C50U C68G | 4.93e-05 ± 1.9e-05 | – | 3.88e-05 ± 1.6e-05 | 7.89e-05 ± 1.4e-05 | – | 6.55e-05 ± 1.1e-05 | –
13 | C50A G60C | 1.48e-05 ± 7e-06 | – | – | – | – | – | –
14 | A53C U65G | 0.00136 ± 0.0002 | 3420 ± 810 | 8.25e-05 ± 1.4e-05 | 0.000555 ± 6.7e-05 | 0.00104 ± 0.0001 | 0.000197 ± 2.5e-05 | –
15 | C50G C67A | 0.000178 ± 2.6e-05 | – | 0.000153 ± 2e-05 | 0.000183 ± 2.4e-05 | 0.000145 ± 1.9e-05 | 0.000259 ± 3.2e-05 | 9.53e-05 ± 1.2e-05
16 | A52U C67G C70G | 2.5e-05 ± 7.5e-06 | – | – | – | – | – | –
17 | U54G G60C C68G | 3.07e-05 ± 1.4e-05 | – | – | – | – | – | –
18 | A53G U65A | 0.00318 ± 0.00053 | 1530 ± 350 | 0.000257 ± 5e-05 | 0.00184 ± 0.00046 | 0.00272 ± 0.00056 | 0.00114 ± 0.00019 | 8.56e-05 ± 1.5e-05
19 | A53G U65G | 0.00217 ± 0.00093 | – | 0.000202 ± 4e-05 | 0.00134 ± 0.00033 | – | 0.000884 ± 0.00018 | 9.01e-05 ± 2.5e-05
20 | U49G U56G | 0.000717 ± 1.9e-05 | 4760 ± 210 | – | 0.000254 ± 4.7e-05 | 0.000484 ± 5.8e-05 | 8.38e-05 ± 1.5e-05 | –

Row | Variant | kcat (glucosamine-6-phosphate [1]) [s⁻¹] | KM (glucosamine-6-phosphate [2]) [µM] | self-cleavage kobs at 160 uM GlcN6P (glucosamine-6-phosphate [3]) [s⁻¹] | self-cleavage kobs at 2500 uM GlcN6P (glucosamine-6-phosphate [4]) [s⁻¹] | self-cleavage kobs at 10000 uM GlcN6P (glucosamine-6-phosphate [5]) [s⁻¹] | self-cleavage kobs at 640 uM GlcN6P (glucosamine-6-phosphate [6]) [s⁻¹] | self-cleavage kobs at 40 uM GlcN6P (glucosamine-6-phosphate [7]) [s⁻¹]
21 | U54A U65G C67U | 0.00302 ± 0.00027 | 3900 ± 500 | 0.000109 ± 3.7e-05 | – | 0.00217 ± 0.00041 | 0.000434 ± 9.2e-05 | –
22 | A53G U65A C67A | 0.000109 ± 1.9e-05 | – | 8.41e-05 ± 2.3e-05 | 0.000112 ± 2.9e-05 | 9.28e-05 ± 2.4e-05 | 0.000153 ± 3.7e-05 | –
23 | A52C C68U | 1.28e-05 ± 5.9e-07 | 249 ± 86 | – | – | – | – | < 1e-05
24 | U54G G60U | < 1e-05 | – | – | – | – | – | –
25 | A53C U56A | 0.00313 ± 0.00063 | 2700 ± 730 | 0.000205 ± 3.7e-05 | 0.00171 ± 0.00027 | 0.00243 ± 0.00038 | 0.000467 ± 9.1e-05 | 4.81e-05 ± 7e-06
26 | A52U C70G | 7.01e-05 ± 1.1e-05 | – | – | 8.15e-05 ± 8.6e-06 | 5.93e-05 ± 7.6e-06 | 5.38e-05 ± 1.1e-05 | –
27 | A52G U65C | 3.32e-05 ± 1.6e-06 | 248 ± 83 | – | – | – | – | –
28 | A52G U65G | 0.000271 ± 0.00011 | – | – | 8.89e-05 ± 9.9e-06 | 0.00022 ± 3e-05 | 5.52e-05 ± 9.3e-06 | –
29 | U54C U69G | 6.89e-05 ± 7.2e-06 | – | 3.54e-05 ± 1.6e-05 | 7.28e-05 ± 1.1e-05 | 5.47e-05 ± 1.8e-05 | 5.03e-05 ± 1.1e-05 | –
30 | A52U U69G | 2.57e-05 ± 7.6e-06 | – | 4.23e-05 ± 1.1e-05 | 2.11e-05 ± 7.8e-06 | – | 3.97e-05 ± 1e-05 | –
31 | G51U C67G | < 1e-05 | – | – | – | – | – | –
32 | G51U U65G G66C | < 1e-05 | – | – | – | < 1e-05 | < 1e-05 | –
33 | G51A U54A G59A C68G | 2.9e-05 ± 7.6e-06 | – | – | – | – | – | –
34 | C50G G62U U69G | 8.66e-05 ± 2.1e-05 | – | 0.000155 ± 4.5e-05 | 0.000155 ± 4.7e-05 | 7.41e-05 ± 1.6e-05 | 7.83e-05 ± 2.3e-05 | 3.4e-05 ± 1.2e-05
35 | C50A G59U | < 1e-05 | 181 ± 24 | < 1e-05 | – | < 1e-05 | < 1e-05 | < 1e-05
36 | C50A U69G | 5.56e-05 ± 1.8e-05 | – | 6.06e-05 ± 1.3e-05 | 7.89e-05 ± 1.3e-05 | – | 7.86e-05 ± 1.3e-05 | 2.65e-05 ± 1.3e-05
37 | U49G C70G | 4.12e-05 ± 2.8e-06 | – | 3.09e-05 ± 1.3e-05 | 3.6e-05 ± 8e-06 | 4.11e-05 ± 6e-06 | 4.22e-05 ± 9e-06 | –
38 | U49C C67U | 1e-05 ± 1e-06 | 267 ± 130 | – | – | – | – | –
39 | A53C C67U | 0.00119 ± 0.00012 | 1500 ± 230 | 0.000109 ± 1e-05 | 0.000692 ± 8.1e-05 | 0.00108 ± 0.00011 | 0.000355 ± 3.8e-05 | 4e-05 ± 6.8e-06
